Source: US20130244255A1 (published 2013)

Columns and labels:
[1] = molecular target: T1, GPNMB (CG56972) as expressed by human cell lines (human, UniProt Q14956 23-492); experiment: FACS on HUT-78 cells, antibody 1 ug/mL
T1 construct: Endogenous or transfected full-length protein on cells (FACS, killing assays) or in cell lysates (immunoprecipitation, blot); also called native GPNMB protein
T1 sequence: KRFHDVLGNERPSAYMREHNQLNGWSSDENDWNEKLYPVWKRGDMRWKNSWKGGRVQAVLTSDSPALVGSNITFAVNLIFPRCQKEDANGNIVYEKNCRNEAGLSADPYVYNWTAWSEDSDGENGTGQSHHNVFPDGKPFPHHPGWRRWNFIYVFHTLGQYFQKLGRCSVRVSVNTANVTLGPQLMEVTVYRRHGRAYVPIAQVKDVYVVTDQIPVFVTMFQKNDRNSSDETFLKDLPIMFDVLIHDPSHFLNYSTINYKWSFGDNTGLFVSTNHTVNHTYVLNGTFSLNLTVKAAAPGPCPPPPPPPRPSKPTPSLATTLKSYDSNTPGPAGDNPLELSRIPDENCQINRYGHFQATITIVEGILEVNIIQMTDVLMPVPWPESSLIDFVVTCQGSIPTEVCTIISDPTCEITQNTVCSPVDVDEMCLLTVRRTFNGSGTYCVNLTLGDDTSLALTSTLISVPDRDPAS

[2] = molecular target: T1, GPNMB (CG56972) as expressed by human …; experiment: FACS on HH cells, antibody 1 ug/mL
[3] = molecular target: T1, GPNMB (CG56972) as expressed by human …; experiment: FACS on UACC-62 cells, antibody 1 ug/mL
Procedure: The specificity of anti-GPNMB antibodies to cell membrane-bound GPNMB protein expressed by melanoma cancer cell line, UACC-62 was analyzed by FACS analysis. […] Cells were washed twice with PBS (Ca and Mg free), incubated with Versene at 37° C. until cells detached, counted and aliquoted at 1 million cells per assay tube. Cells were then washed twice and resuspended in ice-cold FACS buffer (0.01 M HEPES, 0.15M NaCl, 0.1% NaN₃ and 4% FBS). Primary antibody at 1 μg/mL was added to the cells. Cells were incubated on ice for 30 min, washed 2-3 times and resuspended in 1 mL of ice-cold FACS buffer. R-PE-conjugated goat anti-human antibody (Jackson ImmunoResearch Laboratory) at 1:100 dilution was added and cells were incubated on ice for 30 min. After washing 3 times with 1 mL of ice-cold FACS buffer, cells were fixed with 0.5-1 mL of 1% formaldehyde in PBS and analyzed by flow cytometry.

[4] = molecular target: T1, GPNMB (CG56972) as expressed by human …; experiment: FACS on SK-N-SH cells, CR011 10 ug/mL
Procedure: (§1) Quantitative analysis of CG56972 expression on the surface of cell lines was determined by flow cytometry (FACS). […] Cells were fixed in 1% paraformaldehyde/PBS and examined on a Becton Dickinson FACSCalibur flow cytometer. Data analysis was performed with Becton Dickinson Cell Quest software version 3.3 and the geometric mean fluorescence intensity ratio (GMR) was determined for each cell type.

[5] = molecular target: T1, GPNMB (CG56972) as expressed by human …; experiment: FACS on HEMNLP cells
[6] = molecular target: T1, GPNMB (CG56972) as expressed by human …; experiment: FACS on WM-266-4 cells
[7] = molecular target: T1, GPNMB (CG56972) as expressed by human …; experiment: FACS on ML-2 cells, antibody 1 ug/mL
Procedure: (§2) Lymphoma or leukemia derived cells were washed twice with ice-cold FACS buffer and resuspended at 1 million cells per assay tube. […] Cells were then washed 2-3 times and resuspended in 1 mL of ice-cold FACS buffer. R-PE-conjugated goat anti-human antibody at 1:100 dilution was added and cells were incubated on ice for 30 min. Cells were washed 3 times with 1 mL of ice-cold FACS buffer, fixed with 0.5-1 mL of 1% formaldehyde in PBS and analyzed by Flow Cytometry.

[8] = molecular target: T1, GPNMB (CG56972) as expressed by human …; experiment: FACS on HL-60 cells, antibody 1 ug/mL
[9] = molecular target: T1, GPNMB (CG56972) as expressed by human …; experiment: FACS on UACC-257 cells
[10] = molecular target: T1, GPNMB (CG56972) as expressed by human …; experiment: FACS on HT144 cells
[11] = molecular target: T1, GPNMB (CG56972) as expressed by human …; experiment: FACS on U87MG cells, CR011 10 ug/mL
Procedure: as §1

[12] = molecular target: T2, Recombinant human GPNMB extra-cellular domain (ECD) with a C-terminus V5-HIS tag (human, UniProt Q14956 23-492); experiment: Biacore, mAb captured on protein A
T2 construct: Expressed in HEK293; also called GPNMB-V5His; GPNMB-soluble
T2 sequence: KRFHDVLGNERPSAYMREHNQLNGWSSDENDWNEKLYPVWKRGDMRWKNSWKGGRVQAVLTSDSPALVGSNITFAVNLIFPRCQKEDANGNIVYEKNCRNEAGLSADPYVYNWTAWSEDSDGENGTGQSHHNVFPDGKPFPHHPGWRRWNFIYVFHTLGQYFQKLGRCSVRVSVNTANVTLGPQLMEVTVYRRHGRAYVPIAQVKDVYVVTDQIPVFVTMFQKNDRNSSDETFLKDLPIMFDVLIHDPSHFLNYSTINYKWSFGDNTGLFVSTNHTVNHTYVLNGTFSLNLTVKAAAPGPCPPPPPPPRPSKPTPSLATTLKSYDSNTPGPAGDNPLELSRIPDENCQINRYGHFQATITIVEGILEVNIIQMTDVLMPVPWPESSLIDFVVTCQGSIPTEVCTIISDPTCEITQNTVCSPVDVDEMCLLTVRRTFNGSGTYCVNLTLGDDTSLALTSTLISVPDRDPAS
Procedure: Certain Hybridoma cell supernatants (29) were analyzed for binding to GPNMB by BiaCore® 2000 biosensor equipped with a research-grade CM5 sensor chip. A 1:25 dilution of cell supernatant was passed over a protein A surface for 5 min followed by washing the surface for 10 mins. […] GPNMB binding data for each mAb was normalized for the amount of mAb captured on each surface. Normalized, drift corrected responses were also measured. The sensorgrams were fit to a simple 1:1 kinetic model.

[13] = molecular target: T1, GPNMB (CG56972) as expressed by human …; experiment: FACS on D392-MG cells, CR011 10 ug/mL
Procedure: as §1

[14] = molecular target: T1, GPNMB (CG56972) as expressed by human …; experiment: FACS on EOL-1 cells, antibody 1 ug/mL
[15] = molecular target: T1, GPNMB (CG56972) as expressed by human …; experiment: FACS on SIG-M5 cells, antibody 1 ug/mL
Procedure: as §2

[16] = molecular target: T1, GPNMB (CG56972) as expressed by human …; experiment: FACS on MV4-11 cells, antibody 1 ug/mL
[17] = molecular target: T1, GPNMB (CG56972) as expressed by human …; experiment: FACS on CCRF-CEM cells, antibody 1 ug/mL
Procedure: as §2

[18] = molecular target: T1, GPNMB (CG56972) as expressed by human …; experiment: FACS on U937 cells, antibody 1 ug/mL
Procedure: as §2

[19] = molecular target: T1, GPNMB (CG56972) as expressed by human …; experiment: FACS on WM115 cells
[20] = molecular target: T1, GPNMB (CG56972) as expressed by human …; experiment: FACS on SR cells, antibody 1 ug/mL
Procedure: as §2

[21] = molecular target: T1, GPNMB (CG56972) as expressed by human …; experiment: FACS on SF-539 cells, CR011 10 ug/mL
Procedure: as §1
Geometric Mean ratios (GMR) were determined by flow cytometric analysis.

[22] = molecular target: T1, GPNMB (CG56972) as expressed by human …; experiment: FACS on M14 cells
[23] = molecular target: T1, GPNMB (CG56972) as expressed by human …; experiment: FACS on DEL cells, antibody 1 ug/mL
Procedure: as §2

[24] = molecular target: T1, GPNMB (CG56972) as expressed by human …; experiment: FACS on U-251 cells, CR011 10 ug/mL
Procedure: as §1

B1: CR011 mAb 1.15.1 (IgG2) (antibody)
heavy: QVQLQESGPGLVKPSQTLSLTCTVSGGSISSFNYYWSWIRHHPGKGLEWIGYIYYSGSTYSNPSLKSRVTISVDTSKNQFSLTLSSVTAADTAVYYCARGYNWNYFDYWGQGTLVTVSSASTKGPSVFPLAPCSRSTSESTAALGCLVKDYFPEPVTVSWNSGALTSGVHTFPAVLQSSGLYSLSSVVTVPSSNFGTQTYTCNVDHKPSNTKVDKTVERKCCVECPPCPAPPVAGPSVFLFPPKPKDTLMISRTPEVTCVVVDVSHEDPEVQFNWYVDGVEVHNAKTKPREEQFNSTFRVVSVLTVVHQDWLNGKEYKCKVSNKGLPAPIEKTISKTKGQPREPQVYTLPPSREEMTKNQVSLTCLVKGFYPSDIAVEWESNGQPENNYKTTPPMLDSDGSFFLYSKLTVDKSRWQQGNVFSCSVMHEALHNHYTQKSLSLSPGK
VL: not shown
notes: also called CR011.1.15.1; CR011 IgG2
B1 was tested, and the “Geo Mean Ratio” value [1] was 1.5 ratio, the “Geo Mean Ratio” value [2] was 1 ratio and the “Geo Mean Ratio (relative to pK16)” value [3] was 7.89 ratio. The “CR011 Fold Shift (GMR)” value [4] was 2 fold, the “Geo Mean Ratio (relative to isotype)” value [5] was 10.2 ratio and the “Geo Mean Ratio (relative to isotype)” value [6] was 13.6 ratio. For the same binder, the “Geo Mean Ratio” value [7] was 2.1 ratio, the “Geo Mean Ratio” value [8] was 2.3 ratio and the “Geo Mean Ratio (relative to isotype)” value [9] was 7 ratio. For the same binder, the “Geo Mean Ratio (relative to isotype)” value [10] was 7.4 ratio, the “CR011 Fold Shift (GMR)” value [11] was 1.5 fold and the Kd [12] was 52 nM. The koff [12] was 0.000855 s⁻¹, the kon [12] was 16500 M⁻¹ s⁻¹ and the “CR011 Fold Shift (GMR)” value [13] was 3.1 fold. The “Geo Mean Ratio” value [14] was 1 ratio, the “Geo Mean Ratio” value [15] was 2.9 ratio and the “Geo Mean Ratio” value [16] was 1.9 ratio. For the same binder, the “Geo Mean Ratio” value [17] was 10.9 ratio, the “Geo Mean Ratio” value [18] was 17.3 ratio and the “Geo Mean Ratio (relative to isotype)” value [19] was 1.3 ratio. For the same binder, the “Geo Mean Ratio” value [20] was 7.1 ratio, the “CR011 Fold Shift (GMR)” value [21] was 5.4 fold and the “Geo Mean Ratio (relative to isotype)” value [22] was 16.1 ratio. For the same binder, the “Geo Mean Ratio” value [23] was 7.9 ratio and the “CR011 Fold Shift (GMR)” value [24] was 1.9 fold.
